The nature of this data set: yeast display, Sf9 membrane polyspecificity reagent, FACS + sequencing; frameworks hold sequencing errors. A digest of the protocol:
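After 36–48 hours of galactose induction, yeast (Saccharomyces cerevisiae BJ5465) displaying a synthetic nanobody library were stained at 4 °C for 1 hour with 10% biotinylated, detergent-solubilized Sf9 membrane reagent. Streptavidin microbeads enriched the stained cells before FACS sorting into low and high (top ~1%) gates on anti-HA and streptavidin fluorescence. Each clone's polyreactivity label reflects its gate of origin.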
“QVQLVESGGGLVQAGGSLRLSCAATGRPSTSMLWDGIDRRLGKKGSSLTYYADSVKGRFTISRDNAKNTVYLQMNCLKPEDTAVYYCNKRRRWDNYGYRYGYWGQGTQVTVSS”: the “polyreactivity (PSR sort gate)” value is recorded as “low polyreactivity”.
As for “QVQLVESGGGLVQAGGSLRLSCAATGRSFVHKAMGWYRQAPGKERELVAAISRGGSTYYADSVKGRFTISRDNAKNTVYLQMNSMKPEDTAVYYCAKERRYTGRRSYEFNYWGQGTHVTVSS”, the “polyreactivity (PSR sort gate)” value is “low polyreactivity”.
For “QVQLVESGGGLVQAGGSLRLSCAATGRSFVLNAMGWYRQAAGKERELVATINYSGSSTYYADSVKGRFTISRDNAKNTVYLQMNSLKPEDTAVYYCNRDVPYRLVYYANYYWGHGTQVTVSS”, the “polyreactivity (PSR sort gate)” value was “low polyreactivity”.
As for “QVQLVESGGGLVQAGGSLRLSCAATGRTFYVNAMGWYRQAPGLEREFVARITSGGSTYYADSVKGRFTISPDKAKNTVYVQKNSLKPEDTAVYYCAADYVSLSVFSYCAWYDYWGQGTQVTVSS”, the entry is “low polyreactivity”; as for “QVQLVESGGGLVQAGGSLRLSCAATGRTFYWNAMGWYRQAPGKERELVAAIDSSGGSTYYADSVKGRFTISRDNAKNTVYLQMNSLKPEDTAVYYCNKDYPTYDYDYWGQGTQVTVSS”, “low polyreactivity”.
Then “QVQLVESGGGLVQAGGSLRLSCAATGSIFQSYAMGWYRQAPGKERELVAAITARGTSTYYADSVKGRFTISRDNAKNTVYLQMNSLKPEETAVYYCNTDRSRSPGDVESPSDIKRDYWGQGTQVTVSS”, with “low polyreactivity”; and “QVQLVESGGGLVQAGGSLRLSCAATGSIFRRYAMGWYGQAPGKERELVAAISWSGGSTYYADSVKGRFTISRDNAKNTVYLQMNSLKPEDTAVYYCAARHRQQKLDYWGQGTQVTVSS”, with “high polyreactivity”.
With “QVQLVESGGGLVQAGGSLRLSCAATGSIFYFNAMGWYRKAPGKERELVADISGSGGSTYYADSVKGRFTISRDNAKNTVYLQMNSLKPEDTAVYYCAARLYLHSWWYYAYDYWGQGTQVTVSS”, the “polyreactivity (PSR sort gate)” value is on record as “high polyreactivity”.
Turning to “QVQLVESGGGLVQAGGSLRLSCAATGSIIVYNTMGWYRQAPGKERELVAAITVRDDSTYYADSVKGRFTISRDNAKNTVYLQMNSLKPEDTAVYYCNARGNFLIGRDYWGQGTQVTVSS”, the “polyreactivity (PSR sort gate)” value was “low polyreactivity”.
Then “QVQLVESGGGLVQAGGSLRLSCAATGSIYSYAMGWNRQAPGKERELVAAISRSGGRTYYADSVKGRFTISRDNAKNTVYLQMNSLKPEDTAVYYCAADGYSAKYYPGGDYWGQGTQVTVSS”, with “high polyreactivity”.
In the case of “QVQLVESGGGLVQAGGSLRLSCAATGSTFYQYALGWYRQAPGKERELVAAISSRGTSTYYADSVKGRFTISRDNAKNTVYLQMNSLKPEDTAVYYCATEYTNWHRTWSLQTGGYGYWGQGTQGTVSS”, the “polyreactivity (PSR sort gate)” value was “high polyreactivity”.
For “QVQLVESGGGLVQAGGSLRLSCAATRRIFRRNPMGWYIQAPGKERELVATISANGGSTYYADSVKGRFTISRDNAKNTVYLQMNSLKPEATAVYYCAAQGWSWYWYQKIYYWGQGTQVTVSS”, the “polyreactivity (PSR sort gate)” value is on record as “high polyreactivity”.
For “QVQLVESGGGLVQAGGSLRLSCAATRSTSSKYAMGWYRQAPGKERELVAAITRSGGRTYYAVSVMGRFTISRDYAKNTVYLQMNSLKPEDTAVYYCAAAGVYWEFDYWGQGTQVTVSS”, the “polyreactivity (PSR sort gate)” value is reported as “high polyreactivity”.
Consider “QVQLVESGGGLVQAGGSLRLSCAAYGFIFKKYAMGWYRQAPGKERELVAAISGSSTRTYYADSVKGRFTISRDNAKKTVYLQMHSLKPEDTAVYYCVGRFYERDYWGQGTQVTVSS”, for which the “polyreactivity (PSR sort gate)” value was “high polyreactivity”.
On to “QVQLVESGGGLVQAGGSLRLSCAAYGFTCPLNAMGWYRQAPGKERELVAAISGSSGSTYYADSVKGRFTISRDNAKNTVYLQMNSLKPEDTAVYYCAKKYAWRYYYWGQGTQVTVSS”, for which the “polyreactivity (PSR sort gate)” value was “high polyreactivity”.
With “QVQLVESGGGLVQAGGSLRLSCAAYGFTFGVYALGWYRQAPGKERELVAAISRIGGRTYYADSLKGRYTISRDNAKNTVYVQMNSLKPEDTAVYYCAESPRQGMYYWGQGTQVTVSS”, the “polyreactivity (PSR sort gate)” value is “high polyreactivity”.
Then “QVQLVESGGGLVQAGGSLRLSCAAYGIIFTWYVMGWYRQAPGKERELVAAISASGASTYYADSVKGRFTISRDNAKNTVYLQMNSLKPEDTAVYYCAARYGWYPVRQPRPGGDYWGQGTQVTVSS”, with “high polyreactivity”.
Then “QVQLVESGGGLVQAGGSLRLSCAAYGRIFAYYAMGWYRQAPGKERELVAAISSGGTTNYADSVKGRFTISRDNAKNTVYLQMNSLKPEDTAVYYCNADGWRRSRQYYYWGQGTQVTVSS”, with “low polyreactivity”.
On to “QVQLVESGGGLVQAGGSLRLSCAAYGRIFGVYAMGWYRPAPGKERELVAAIERRGGTTYYADSVKGRITISRDMAKNTVYLQLNSLKPEDTAVYYCATGSIAAGHYAYNYWGQGTQVTVSS”, for which the “polyreactivity (PSR sort gate)” value is “high polyreactivity”.
In the case of “QVQLVESGGGLVQAGGSLRLSCAAYGRIFLLYAMGWYRQAPGKERELVAGISIGGSTNYADSVKGRFTISRDNAKNTVYVQMNSLKPEDTAVYYCNAKRYFASRKNGYYYWGQGTQVTVSS”, the “polyreactivity (PSR sort gate)” value is “high polyreactivity”.
Turning to “QVQLVESGGGLVQAGGSLRLSCAAYGRIFTINAMGWYRQAPGKERELVASIRSTGGSTYYADSVKGRFTISRDNAKNTVYLQMNSLKPEDTAVYYCAADGGVAWGYGYWGQGTQVTVSS”, the “polyreactivity (PSR sort gate)” value was “low polyreactivity”.
With “QVQLVESGGGLVQAGGSLRLSCAAYGRIFYAYAMGWYRQAPGKERELVAAITNGGGTTYYADSVKGRFTISRDNAKNTVYLQMNSLKPEDTAVYYCNAVRYTIAHGFYYVPEDYWGQGTQVTVSS”, the “polyreactivity (PSR sort gate)” value was “low polyreactivity”.
On to “QVQLVESGGGLVQAGGSLRLSCAAYGRIFYRNAMGWYRQAPGKERELVAAISRSGGSTYYADSVKGRFTISRDNAKNTVYLQMNSLNPEDTAVYYCNAYRYLQSGPPRYREHGSWGQGTQVTVSS”, for which the “polyreactivity (PSR sort gate)” value is given as “low polyreactivity”.
Then “QVQLVESGGGLVQAGGSLRLSCAAYGRIFYYNRMGWYRQAPGKERELVADISFSDGSTYYADSVKGRFTISRDIAKNTVYLQMNSLKPEDTAVYYCAAVIGYDYDYWGQVTQVTVSS”, with “low polyreactivity”; and “QVQLVESGGGLVQAGGSLRLSCAAYGRIIYLNAMGWYRQAPGKERELVATISSSGGTTNYADSVKGRFTISRDNAKNTVYLQMNSLKPEDTAVYYCAAKFVGTTVSEYGYWGQGTQVTVSS”, with “low polyreactivity”; and “QVQLVESGGGLVQAGGSLRLSCAAYGRILSLYAMGWYRQAPGKERQLVAAIRWSGSRTYYADSVKGRFTISRDNAKNTVYLQMNSLKPEDTAVYYCAARDSTNLLSGYTHYYWGQGTQVTVSS”, with “high polyreactivity”.
On to “QVQLVESGGGLVQAGGSLRLSCAAYGRTFARYAMGWYRQAPGKERELVAAISKSGVSTYYADSVKGRFTISRDHAKNTLYLQMNSLKPEDTAVYYCAAYVRQLQVVRGVSNYDSWGQGTQVTVSS”, for which the “polyreactivity (PSR sort gate)” value was “high polyreactivity”.
“QVQLVESGGGLVQAGGSLRLSCAAYGRTFDTYAMGGYRQAPGKERELVAAITKGGGSTYYADSVKGRFTISRDNAKNTVYLQMNSLKPEDTAVYYCNDRVHGEYFHGIRYYYWGQGTQVTVSS”: the “polyreactivity (PSR sort gate)” value is on record as “low polyreactivity”.
Then “QVQLVESGGGLVQAGGSLRLSCAAYGRTFGLNAMGWYRQAPGKERELVAAISSSGGSTYYADSVKGRFTISRDNAKNTVYLQMNSLKPEDTAVYYCARVPLHRYGYWGQGTQVNVSS”, with “high polyreactivity”; and “QVQLVESGGGLVQAGGSLRLSCAAYGRTFGRYAMGWYRQAPGKERELVAVINGGGSTYYADSVKGRFTISRDNAKNTVYLQMNSLKPEDTAVDYCAVGGYTRTGGWFDYWGQGTQVTVSS”, with “high polyreactivity”; and “QVQLVESGGGLVQAGGSLRLSCAAYGRTFGYNTMGWYRQAPGKERELVATIRTNGVSTYYADSVKGRFTISRDNAKNTVYLQMNSLKPEDTAVYYCNADPHDQYDYWGQGTQVTVSS”, with “low polyreactivity”.
As to “QVQLVESGGGLVQAGGSLRLSCAAYGRTFWNYAMGWYRQAPGKERELVAAISSSGGTTYYADSVKGRFTISRDNAKNTVYLQMNSLKPEDTAVYYCAATGVSKPQRSFVYWGQGTQVTVSS”, the “polyreactivity (PSR sort gate)” value is on record as “low polyreactivity”.
In the case of “QVQLVESGGGLVQAGGSLRLSCAAYGRTLRYYAMGWYRQAPGKERELVAAISSGGTTNYADSVKGRFTISRDNAKNTVYLQMNSLKPEDTAVYYCAARYRRFRFTQYDYWGQGTQVTVSS”, the “polyreactivity (PSR sort gate)” value was “high polyreactivity”.
“QVQLVESGGGLVQAGGSLRLSCAAYGRTSRRNAMGWYRQAPGKERELVAAINRTGGTTYYADYVKGRFTISRDNAKNTVYLQMNSLKPVVNAVYYCAAGAPLSTPRGTTYRYYYWGQGTQVTVSS”: the “polyreactivity (PSR sort gate)” value is listed as “high polyreactivity”.
As to “QVQLVESGGGLVQAGGSLRLSCAAYGSIFALYAMGWYRPAPGKERELVARISSGGSTYYADSVKGRFTISRDNAKNTVYLQMNSLKPEDTAVYYCARYHKTHAVLRYDYWGQGTQVTVSS”, the “polyreactivity (PSR sort gate)” value was “low polyreactivity”.
As to “QVQLVESGGGLVQAGGSLRLSCAAYGSIFGVNVMGWYRQSPGKERELVAAIDVSDTSTYYADSVKGRFTMSRDNAKNTVYLQLNSLKPDDTAVYYCAADGLRWWPFEYRFTFDYWGQGTQVTVSS”, the “polyreactivity (PSR sort gate)” value is “low polyreactivity”.
With “QVQLVESGGGLVQAGGSLRLSCAAYGSIFKRYAMGWYRQAPGKERELVASNSSSGSSTNYADSVKGRFTISRDTAKNTVYLQMNSLKPEDTSVYYCAADTKASGTPVYYSYLYDYWGQGTHVTVSS”, the “polyreactivity (PSR sort gate)” value is given as “high polyreactivity”.
Then “QVQLVESGGGLVQAGGSLRLSCAAYGSIFWSYAMGWYIQAPGKERELVAGITRSGGSTYYSDSVKGRFTISRDNAKNPVYLQMISLKPEDTAVYYCNKAFGGDKYSGSYEYWGQGNQVTVSS”, with “high polyreactivity”; and “QVQLVESGGGLVQAGGSLRLSCAAYGSIIHANAMGWYRQAPGKERELVAAITGDGSTYYADSVKGRFTISRDNAKNTVYLQMNSLKPEDTAVYYCNAEYYSTYDSWGQGTQVTVSS”, with “low polyreactivity”; and “QVQLVESGGGLVQAGGSLRLSCAAYGSILGIYAMGGYRQAPGKERELVAAIRTSSASTYYADSVKGRFTISRDNAKNTVYLQMNSLKPEDSAVYYCAAYAFSYTPYYSWGQGTQVTVSS”, with “high polyreactivity”.
For “QVQLVESGGGLVQAGGSLRLSCAAYGSTFFLYAMGWYRQAPGKVRELVAAITYTDGDTYYADSVKGRFTISRDNAKHTVYLQMNSLKPEDTAVYYCNAGGDEPVYGSGYDYWGQGTQVNVSS”, the “polyreactivity (PSR sort gate)” value is recorded as “low polyreactivity”.

These data come from the nanobody polyreactivity screen of Harvey et al. (2022).
